From article PMC11580931 (bioRxiv, 2024) come the findings set out here.

What is called Kd is the equilibrium constant for the complex coming apart. A higher Kd goes with weaker binding. As a reminder, the koff is the first-order rate constant of dissociation. By kon is commonly meant a measure of how fast the partners come together. Higher therefore signals faster complex formation.

For assay [1], the target named is 3-pTza peptide (Biotin-AminocaproicAcid-AGAG-3-pTza-AGAG). Kind of assay: BLI. For orientation: In BLI a coated tip is dipped into the sample, and binding shifts an interference pattern.
Assay [2] deals with T1, 3-pHis peptide (biotin-aminocaproic acid-AGAG-3-pHis-AGAG).
T1 sequence (peptide, biotin-aminocaproic acid on the N-terminus; 3-phosphohistidine at position 5): AGAGHAGAG
Description: BLI.

Assay [3] concerns the target 3-pHis form of ACLY (120 kDa) (Homo sapiens (HEK293T, endogenous), UniProt P53396, 3-phosphohistidine (residue not stated)). Description: immunoblot.

3-pHis form of ACLY (120 kDa), sequence (P53396 whole entry): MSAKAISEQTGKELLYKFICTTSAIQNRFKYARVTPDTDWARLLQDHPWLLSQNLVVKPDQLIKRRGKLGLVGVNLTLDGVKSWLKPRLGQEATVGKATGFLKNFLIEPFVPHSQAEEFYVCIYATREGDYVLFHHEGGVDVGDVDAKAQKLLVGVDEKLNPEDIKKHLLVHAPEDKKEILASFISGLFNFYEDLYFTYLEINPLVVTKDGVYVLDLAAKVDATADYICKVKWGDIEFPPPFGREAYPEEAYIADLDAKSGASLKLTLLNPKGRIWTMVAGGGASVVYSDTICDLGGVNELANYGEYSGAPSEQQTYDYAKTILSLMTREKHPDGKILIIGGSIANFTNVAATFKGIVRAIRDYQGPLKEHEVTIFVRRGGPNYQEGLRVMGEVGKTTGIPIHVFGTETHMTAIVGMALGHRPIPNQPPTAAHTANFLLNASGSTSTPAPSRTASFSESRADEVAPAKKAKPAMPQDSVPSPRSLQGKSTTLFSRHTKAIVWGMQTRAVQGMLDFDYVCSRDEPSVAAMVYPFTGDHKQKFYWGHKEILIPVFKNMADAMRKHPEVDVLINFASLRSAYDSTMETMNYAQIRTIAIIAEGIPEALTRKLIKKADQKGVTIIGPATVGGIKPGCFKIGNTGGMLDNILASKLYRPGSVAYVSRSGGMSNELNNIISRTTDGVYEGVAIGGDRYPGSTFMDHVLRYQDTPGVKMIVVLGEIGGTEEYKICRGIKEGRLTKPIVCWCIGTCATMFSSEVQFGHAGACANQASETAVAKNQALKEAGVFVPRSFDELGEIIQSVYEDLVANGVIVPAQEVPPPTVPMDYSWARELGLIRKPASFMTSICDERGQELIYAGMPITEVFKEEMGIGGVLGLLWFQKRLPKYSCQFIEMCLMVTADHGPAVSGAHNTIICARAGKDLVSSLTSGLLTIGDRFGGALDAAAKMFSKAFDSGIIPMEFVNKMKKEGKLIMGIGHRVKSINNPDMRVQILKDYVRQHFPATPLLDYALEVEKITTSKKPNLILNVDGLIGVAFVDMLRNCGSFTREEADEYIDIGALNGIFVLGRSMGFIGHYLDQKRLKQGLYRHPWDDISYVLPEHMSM

B1: hSC44 IgG (humanized version of rSC44) (antibody, V domains shown)
VH: EVQLVESGGGLVQPGGSLRLSCTASGFSIDSYGFSWVRQAPGKGLEHIGYLTAGGRAFYASWAKSRSTITRNTNENTVTLKMNSLRAEDTAVYYCAKLGSGNPVAIWGQGTLVTVSS
VL: DIQMTQSPSSLSASVGDRVTITCRASQSVWRNKNVAWYQQKPGKAPKRLIYAIASLYSGVPSRFSGSGSGTDFTLTISSLQPEDFATYYCVGHYGSENDAYYAFGQGTKVEIK
In the case of B1, the Kd in assay [1] worked out at 1.2 nM.

B2: hSC44.31 IgG (antibody, V domains shown)
VH: EVQLVESGGGLVQPGGSLRLSCTASGFSIDSYGFSWVRQAPGKGLEHIGYLTAGGRAFYASWAKSRSTITRNTNENTVTLKMNSLRAEDTAVYYCAKLGTGTPFAIWGQGTLVTVSS
VL: DIQMTQSPSSLSASVGDRVTITCRASQSVWRNKYVAWYQQKPGKAPKRLIYAIASLYSGVPSRFSGSGSGTDFTLTISSLQPEDFATYYCVGHYGSENDAYYAFGQGTKVEIK
In the case of B2, in assay [1], the Kd was 2.71 nM, the koff is 3.98e-05 s⁻¹ and the association rate constant (kon) was found to be 14700 M⁻¹ s⁻¹.

B3: hSC44.28 IgG (antibody, V domains shown)
VH: EVQLVESGGGLVQPGGSLRLSCTASGFSIDSYGFSWVRQAPGKGLEHIGYLTAGGRAFYASWAKSRSTITRNTNENTVTLKMNSLRAEDTAVYYCAKLGTGSPLAIWG
VL: DIQMTQSPSSLSASVGDRVTITCRASQSVWRNKFVAWYQQKPGKAPKRLIYAIASLYSGVPSRFSGSGSGTDFTLTISSLQPEDFATYYCVGHYGSENDAYYAFGQGTKVEIK
In assay [1], B3 registered a Kd of 1.21 nM and a kon of 24900 M⁻¹ s⁻¹.

B4: hSC44.22 IgG (antibody, V domains shown)
VH: EVQLVESGGGLVQPGGSLRLSCTASGFSIDSYGFSWVRQAPGKGLEHIGYLTAGGRAFYASWAKSRSTITRNTNENTVTLKMNSLRAEDTAVYYCAKLGTGTPVAIWG
VL: DIQMTQSPSSLSASVGDRVTITCRASQSVWRNKNVAWYQQKPGKAPKRLIYAIASLYSGVPSRFSGSGSGTDFTLTISSLQPEDFATYYCVGHYGSENDAYYAFGQGTKVEIK
As for B4, in assay [1], the Kd was 0.495 nM, the koff is 4.49e-05 s⁻¹ and the kon came out at 90600 M⁻¹ s⁻¹.

B5: hSC44.1 IgG (antibody, V domains shown)
VH: EVQLVESGGGLVQPGGSLRLSCTASGFSIDSYGFSWVRQAPGKGLEHIGYLTAGGRAFYASWAKSRSTITRNTNENTVTLKMNSLRAEDTAVYYCAKLGTGSPIAIWGQGTLVTVSS
VL: DIQMTQSPSSLSASVGDRVTITCRASQSVWRNKNVAWYQQKPGKAPKRLIYAIASLYSGVPSRFSGSGSGTDFTLTISSLQPEDFATYYCVGHYGSENDAYYAFGQGTKVEIK
In assay [1], B5 yielded a Kd of 0.588 nM, a koff of 8.32e-05 s⁻¹ and a kon of 141000 M⁻¹ s⁻¹.

B6: hSC44.13 IgG (antibody, V domains shown)
VH: EVQLVESGGGLVQPGGSLRLSCTASGFSIDSYGFSWVRQAPGKGLEHIGYLTAGGRAFYASWAKSRSTITRNTNENTVTLKMNSLRAEDTAVYYCAKLGTGSPVAIWG
VL: DIQMTQSPSSLSASVGDRVTITCRASQSVWRNKNVAWYQQKPGKAPKRLIYAIASLYSGVPSRFSGSGSGTDFTLTISSLQPEDFATYYCVGHYGSENDAYYAFGQGTKVEIK
In the case of B6, in assay [1], the Kd came to 0.405 nM, the off-rate constant (koff) was 7.37e-05 s⁻¹ and the kon was 182000 M⁻¹ s⁻¹.

B7: hSC44.20.N32Y^L IgG (antibody, V domains shown)
VH: EVQLVESGGGLVQPGGSLRLSCTASGFSIDSYGFSWVRQAPGKGLEHIGYLTAGGRAFYASWAKSRSTITRNTNENTVTLKMNSLRAEDTAVYYCAKLGTGSRFAIWGQGTLVTVSS
VL: DIQMTQSPSSLSASVGDRVTITCRASQSVWRNKYVAWYQQKPGKAPKRLIYAIASLYSGVPSRFSGSGSGTDFTLTISSLQPEDFATYYCVGHYGSENDAYYAFGQGTKVEIK
In assay [1], B7 displayed a Kd below 0.001 nM and an association rate constant (kon) of 35100 M⁻¹ s⁻¹. For the same molecule, in assay [2], the Kd turned out to be 9.5 nM, the koff amounted to 2.61e-05 s⁻¹ and the kon was 8880 M⁻¹ s⁻¹.

B8: hSC44.8 IgG (antibody, V domains shown)
VH: EVQLVESGGGLVQPGGSLRLSCTASGFSIDSYGFSWVRQAPGKGLEHIGYLTAGGRAFYASWAKSRSTITRNTNENTVTLKMNSLRAEDTAVYYCAKIGTGSRVAIWG
VL: DIQMTQSPSSLSASVGDRVTITCRASQSVWRNKNVAWYQQKPGKAPKRLIYAIASLYSGVPSRFSGSGSGTDFTLTISSLQPEDFATYYCVGHYGSENDAYYAFGQGTKVEIK
Regarding B8, in assay [1], the Kd was found to be 0.185 nM, the koff was 6.66e-05 s⁻¹ and the kon came to 359000 M⁻¹ s⁻¹.

B9: hSC44.20 IgG (antibody, V domains shown)
VH: EVQLVESGGGLVQPGGSLRLSCTASGFSIDSYGFSWVRQAPGKGLEHIGYLTAGGRAFYASWAKSRSTITRNTNENTVTLKMNSLRAEDTAVYYCAKLGTGSRFAIWGQGTLVTVSS
VL: DIQMTQSPSSLSASVGDRVTITCRASQSVWRNKNVAWYQQKPGKAPKRLIYAIASLYSGVPSRFSGSGSGTDFTLTISSLQPEDFATYYCVGHYGSENDAYYAFGQGTKVEIK
Take B9: the Kd is below 0.001 nM in assay [1] and 21 nM in assay [2]. Further, the figures for the kon in assay [1] and in assay [2] were 257000 M⁻¹ s⁻¹ and 75500 M⁻¹ s⁻¹, respectively. Further, the binding result in assay [3] is “binds”.

B10: hSC44.20.N32F^L IgG (antibody, V domains shown)
VH: EVQLVESGGGLVQPGGSLRLSCTASGFSIDSYGFSWVRQAPGKGLEHIGYLTAGGRAFYASWAKSRSTITRNTNENTVTLKMNSLRAEDTAVYYCAKLGTGSRFAIWGQGTLVTVSS
VL: DIQMTQSPSSLSASVGDRVTITCRASQSVWRNKFVAWYQQKPGKAPKRLIYAIASLYSGVPSRFSGSGSGTDFTLTISSLQPEDFATYYCVGHYGSENDAYYAFGQGTKVEIK
Regarding B10, in assay [1], the Kd turned out to be 1.54 nM, the koff is 5.73e-05 s⁻¹ and the kon turned out to be 37300 M⁻¹ s⁻¹. In assay [2], the Kd turned out to be 1.68 nM, the koff worked out at 1.64e-05 s⁻¹ and the kon worked out at 13900 M⁻¹ s⁻¹. In addition, in assay [3], the binding result was “binds”.

B11: hSC44.3 IgG (antibody, V domains shown)
VH: EVQLVESGGGLVQPGGSLRLSCTASGFSIDSYGFSWVRQAPGKGLEHIGYLTAGGRAFYASWAKSRSTITRNTNENTVTLKMNSLRAEDTAVYYCAKIGSGSPVAIWG
VL: DIQMTQSPSSLSASVGDRVTITCRASQSVWRNKNVAWYQQKPGKAPKRLIYAIASLYSGVPSRFSGSGSGTDFTLTISSLQPEDFATYYCVGHYGSENDAYYAFGQGTKVEIK
For B11, in assay [1], the Kd is 0.352 nM, the koff was determined as 1.43e-05 s⁻¹ and the kon amounted to 40700 M⁻¹ s⁻¹.

B12: rSC44 IgG (rabbit SC44-8 anti-3-pTza/3-pHis mAb) (antibody, V domains shown)
VH: QSVKESGRGLVQPGGSLTLTCTASGFSIDSYGFSWVRQAPGKGLEHIGYLTAGGRAFYASWAKSRSTITRNTNENTVTLKMTSLTAADTATYFCAKLGSGNPVAIWGPGTLVTVSS
VL: QVLTQTPSFTSAAVGGTVTINCQSSQSVWRNKNLAWYQQKPGQPPKRLIYAIATLDSGVPSRFSGSGSGTQFTLTISDVQCDDAATYYCVGHYGSENDAYYAFGGGTEVVVK
In the case of B12, the binding result in assay [3] is given as “binds”.
